The record followed here is patent publication US20200062804A1 (ADRX, published 2020).

Non-standard residues stand in square brackets, D forms with d. No end group written: not given here. Chg = N[C@H](C(=O)O)C1CCCCC1; Phg = N[C@H](C(=O)O)c1ccccc1

First the molecules themselves.
T1: Nat1 (LTIITLE) (also: TFA salt)
T1 peptide: LTIITLE

For this experiment, the target named is T1, Nat1 (LTIITLE). The experiment in a line: cell-based or functional assay.
[dQ][dL][dK][dW][dL][dH] [qlkwlh]: the “IC50, Thiofiavin T aggregation assay” value amounted to 716 nM.

Turning to [dW][dW][dR][dW][dY][dR][dR] [wwrwyrr], the “IC50, Thiofiavin T aggregation assay” value stood at 78 nM.

Regarding LLAKYHR, the “IC50, Thiofiavin T aggregation assay” value worked out at 1730 nM.

Turning to Ac-IRIRRYR-NH2 [Ac-IRIRRYR-NH2], the “IC50, Thiofiavin T aggregation assay” value came out at 69 nM.

IRIRRYR: the “IC50, Thiofiavin T aggregation assay” value was 27 nM.

With TYVYRRR, the “IC50, Thiofiavin T aggregation assay” value was found to be 3660 nM.

[dH][dQ][dR][dR][dY][dQ][dR] [hqrryqr]: the “IC50, Thiofiavin T aggregation assay” value was 39100 nM.

Turning to IRARRYR, the “IC50, Thiofiavin T aggregation assay” value came out at 1250 nM.

Take [dK][dL][dK][dW][dL][dW] [klkwlw]: the “IC50, Thiofiavin T aggregation assay” value was found to be 1060 nM.

For the molecule TYIYRQR, the “IC50, Thiofiavin T aggregation assay” value came out at 5170 nM.

As for WRIRRYR, the “IC50, Thiofiavin T aggregation assay” value turned out to be 514 nM.

As for FRLYIH, the “IC50, Thiofiavin T aggregation assay” value came out at 16400 nM.

IRIYRYK: the “IC50, Thiofiavin T aggregation assay” value is 60 nM.

Regarding LHIEHR, the “IC50, Thiofiavin T aggregation assay” value came out at 657 nM.

In the case of LYIRYLR, the “IC50, Thiofiavin T aggregation assay” value was 70 nM.

Take YTIQLWH: the “IC50, Thiofiavin T aggregation assay” value is 46000 nM.

As to IAIRRYR, the “IC50, Thiofiavin T aggregation assay” value is 74 nM.

For the molecule [dF][dA][dR][dA][dH][dR][dR] [farahrr], the “IC50, Thiofiavin T aggregation assay” value was determined as 906 nM.

As for WTIMLWH, the “IC50, Thiofiavin T aggregation assay” value worked out at 525 nM.

For LTRILWH, the “IC50, Thiofiavin T aggregation assay” value turned out to be 16200 nM.

Turning to [dS][dH][dW][dR][dH][dH][dR] [shwrhhr], the “IC50, Thiofiavin T aggregation assay” value was 2270 nM.

Consider WTIKLWH, for which the “IC50, Thiofiavin T aggregation assay” value was determined as 84 nM.

As to LSIRQH, the “IC50, Thiofiavin T aggregation assay” value was 945 nM.

In the case of LRIRRYR, the “IC50, Thiofiavin T aggregation assay” value amounted to 76 nM.

In the case of YYIRTYH, the “IC50, Thiofiavin T aggregation assay” value was 1600 nM.

ALIKYHR: the “IC50, Thiofiavin T aggregation assay” value was 629 nM.

IRIRAYR: the “IC50, Thiofiavin T aggregation assay” value was found to be 23 nM.

For the molecule IHIEIK, the “IC50, Thiofiavin T aggregation assay” value was determined as 723 nM.

For WTIRTWH, the “IC50, Thiofiavin T aggregation assay” value amounted to 784 nM.

Regarding ILRLYFR, the “IC50, Thiofiavin T aggregation assay” value stood at 8970 nM.

Consider [dR][dL][dK][dW][dR][dW] [rlkwrw], for which the “IC50, Thiofiavin T aggregation assay” value was found to be 702 nM.

In the case of TRIRFYR, the “IC50, Thiofiavin T aggregation assay” value amounted to 64 nM.

Turning to WTRITLE, the “IC50, Thiofiavin T aggregation assay” value is 1340 nM.

For the molecule IRIRRYE, the “IC50, Thiofiavin T aggregation assay” value was 32800 nM.

As for [dR][dM][dW][dR][dH][dH][dR] [rmwrhhr], the “IC50, Thiofiavin T aggregation assay” value stood at 13200 nM.

In the case of [dR][dF][dH][dR][dH][dH][dR] [rfhrhhr], the “IC50, Thiofiavin T aggregation assay” value worked out at 30900 nM.

Take LTRITLE: the “IC50, Thiofiavin T aggregation assay” value came to 1680 nM.

In the case of IWIRRWR, the “IC50, Thiofiavin T aggregation assay” value was 1900 nM.

For [Chg]R[Chg]RRYR [Chg-Arg-Chg-Arg-Arg-Tyr-Arg], the “IC50, Thiofiavin T aggregation assay” value stood at 67 nM.

Consider [Phg]R[Phg]RRYR [Phg-Arg-Phg-Arg-Arg-Tyr-Arg], for which the “IC50, Thiofiavin T aggregation assay” value was found to be 5950 nM.

As to IR[Chg]RRYR [Ile-Arg-Chg-Arg-Arg-Tyr-Arg], the “IC50, Thiofiavin T aggregation assay” value was determined as 81 nM.

In the case of [dI][dL][dK][dW][dL][dW] [ilkwlw], the “IC50, Thiofiavin T aggregation assay” value is 1340 nM.

Take [dR][dQ][dW][dY][dR][dW][dQ] [rqwyrwq]: the “IC50, Thiofiavin T aggregation assay” value came out at 2720 nM.

With LRIKYHR, the “IC50, Thiofiavin T aggregation assay” value was found to be 71 nM.

WTIKLTH: the “IC50, Thiofiavin T aggregation assay” value was 720 nM.

For [dQ][dF][dH][dY][dK][dR][dR] [qfhylcrr], the “IC50, Thiofiavin T aggregation assay” value was 23900 nM.

Regarding FFRLYLR, the “IC50, Thiofiavin T aggregation assay” value is 13400 nM.

As for [dQ][dW][dR][dW][dR][dH][dR] [qwrwrhr], the “IC50, Thiofiavin T aggregation assay” value was found to be 3140 nM.

Consider [dK][dL][dK][dK][dL][dH] [klkklh], for which the “IC50, Thiofiavin T aggregation assay” value worked out at 71 nM.

Take TRIYRVK: the “IC50, Thiofiavin T aggregation assay” value was 3740 nM.

For [dK][dL][dK][dW][dA][dY] [klkway], the “IC50, Thiofiavin T aggregation assay” value came to 12600 nM.

For the molecule [dK][dW][dR][dW][dY][dR][dR] [kwrwyrr], the “IC50, Thiofiavin T aggregation assay” value is 75 nM.

Take LTIRTLH: the “IC50, Thiofiavin T aggregation assay” value is 537 nM.

Regarding IFVYHH, the “IC50, Thiofiavin T aggregation assay” value turned out to be 703 nM.

As for [dR][dF][dY][dR][dR][dH][dR] [rfyrrhr], the “IC50, Thiofiavin T aggregation assay” value was found to be 81 nM.

As for [dK][dL][dK][dW][dQ][dW] [klkwqw], the “IC50, Thiofiavin T aggregation assay” value was determined as 7310 nM.

As to LTRILTH, the “IC50, Thiofiavin T aggregation assay” value is 7370 nM.

Regarding YTYMLWK, the “IC50, Thiofiavin T aggregation assay” value was found to be 824 nM.

Take LRIYRVR: the “IC50, Thiofiavin T aggregation assay” value was 81 nM.

Turning to [dQ][dV][dR][dY][dH][dK][dN] [qvryhkn], the “IC50, Thiofiavin T aggregation assay” value amounted to 5700 nM.

With TFVFRHR, the “IC50, Thiofiavin T aggregation assay” value stood at 20300 nM.

On to IRIRRWR, for which the “IC50, Thiofiavin T aggregation assay” value turned out to be 76 nM.

With LWIKYHR, the “IC50, Thiofiavin T aggregation assay” value worked out at 76 nM.

AYYYRHR: the “IC50, Thiofiavin T aggregation assay” value is 2120 nM.
